Assay results taken from patent US20250320291A1.

Molecular target: biotinylated CD19 (UniProt P15391)
Assay: yeast surface display of the scFv, flow cytometry titration of biotinylated CD19, 1:1 equilibrium binding fit, mean±SD of 3 trials

Chain of UniProt P15391 (P15391 20-291 limits assumed): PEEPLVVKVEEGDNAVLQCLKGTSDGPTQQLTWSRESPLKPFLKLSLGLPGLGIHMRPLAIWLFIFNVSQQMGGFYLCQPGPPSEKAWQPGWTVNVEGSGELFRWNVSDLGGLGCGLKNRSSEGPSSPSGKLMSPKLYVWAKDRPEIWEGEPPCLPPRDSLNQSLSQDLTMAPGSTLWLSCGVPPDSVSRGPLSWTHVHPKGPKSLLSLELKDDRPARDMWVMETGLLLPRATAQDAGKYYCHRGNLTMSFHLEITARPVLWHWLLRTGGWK

Kd: 4.8 nM
Substance: FMC63 parental murine anti-CD19 scFv
